Results from the supplement of paper PMC9170038.

System: MS2 coat protein
Assay: apparent KD of MS2 coat protein; higher = weaker reporter binding
Conditions: Eterna round: R107
Procedure, shortened: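 For every design, apparent KD is the median of normalised binding-curve fits from its clusters. The RNA switches were transcribed on-chip from Illumina sequencing clusters and titrated with SNAP-549-labelled MS2 coat protein (twofold steps, 0.7 or 1.5 nM to 3 µM; 0.8–1.5 h to 10–20 min per step). Titrations used 100 mM Tris-HCl pH 7.5, 80 mM KCl, 4 mM MgCl2, without or with constant ligand.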

[1] = input ligand: theophylline 20 uM
[2] = input ligand: theophylline 2 mM
[3] = input ligand: tryptophan 2.4 mM

| Sequence | apparent KD of MS2 coat protein (input ligand: arginine 13.2 mM) [nM] | apparent KD of MS2 coat protein (input ligand: none) [nM] | apparent KD of MS2 coat protein [1] [nM] | apparent KD of MS2 coat protein [2] [nM] | apparent KD of MS2 coat protein [3] [nM] |
| --- | --- | --- | --- | --- | --- |
| AAAGGUAGCAAUAAAUCUCCUACAUGUGAAGGAGCGCCCGAAAGGGCAGGUAGGUCGCACAUGAGGAUCACCCAUGUGAGCUACC [ArgEX 5 #SwitchBubble] | 18.9 | 15.2 | 20.9 | 21.2 | 15.3 |
| ACAUGAGGAUCACCCAUGUUUGAUGUUCCUCGAGGACCGGUACGGCCGCCACUCGAACGAGUGGCGCGCGAGUGCGCACUCGCGC [aSa] | 11.3 | – | 20.1 | 13 | – |
| AAACGCUAUGCGGCCGCCACUAAGGUUGGCGUCUAUGUCGUUUAAGACAUGAGGAUCACCCAUGUUAGGACCGGGCAUGUCCGCG [theeternabot_exclusion_MS2_Trp_B_25] | 19.1 | – | 22.9 | 22.4 | – |
| AGUACUCGAACGGAUACCAGCCGGACAUGAGGAUCACCCAUGUCCUACCAAUGUUCGGUUGGCCCUUGGCAGCCGUUCGUGUACA [Omei Theo B SS A v5] | 99.5 | – | 404 | – | 599 |
| AUUUGUACUUAGUGUUGAGUUCUGUCGGAAGGAGCGGAAUAUAAUCCAGGUAGGUCGCCGACAGACAUGAGGAUCACCCAUGUAA [#09 Exclusion - Arginine A] | 28.2 | 38.3 | 38.9 | 34.7 | 32.3 |
| UCCUACACGGAGACGUGUAGGAGUAAUGAUACCAGCAUGGAGACAUGCCCUUGGCAGCGUUACAUGAGGAUCACCCAUGUGGUGC [ETHA #7] | 14.7 | 16.3 | 26.2 | 270 | 17.7 |
| AAGGGACAUGAGGAUCACCCAUGUACCGAAGGAGCGGCAGAGAUGCCAGGUAGGUCGCGGUACUUGCCGGGUCAUUCAUGCUAAA [Isxeon] | 9.48 | 12 | 14.3 | 11.6 | 13.5 |
| CUGACGAGCUUUUUGUCAGGUUGUGUAGAUACCAGUUCUCUGGUGAACCCUUGGCAGCUAACAACAUGAGGAUCACCCAUGUGAU [theeternabot_exclusion_MS2_Theo_A_33] | 38.5 | – | 96.5 | – | 69.8 |
| UAUCUACAUAUAUAGGUUAUUCGAUUAUUUCGAGGACCGGUACGGCCGCCACUCGUUAACAUAUACAUGAGGAUCACCCAUGUUA [JR_Nu_SSTryptoA_Sub023] | 15.6 | – | 19 | 17.5 | – |
| AGCCCUGUGCUAGAUACCAGCUACAUGAGGAUCACCCAUGUGCGUCAGGACUGACUGUGUAGCCCUUGGCAGCUACUCGCAUGUA [Exclusion - Theophylline B (Freestyle 5)] | 14.4 | – | 20 | – | 14.5 |
| UGCGAUGAACCUGAUACCAGAUGUAUUUGCUCCUCGGACAACAUGAGGAUCACCCAUGUCAUCCCUUGGCAGCAGGAGCGAAAGC [theeternabot_exclusion_MS2_Theo_B_21] | 12.8 | – | 14.3 | – | 11.4 |
| CACGAAAGAUCGGCCGCCACUCAUGUAGCUUACAUGAGGAUCACCCAUGUAUUUUCUUUCUUUUAGAGGACCGGGAUCGAGCGUG [#02 Same State - Tryptophan B] | 33.6 | – | 65.2 | 43.5 | – |
| UGUAUGUGAUUUGAUACCAGACCAGCUGGUGGUACUUGAGGAUCACCCAAGUAGGUUUGGGUCCCUUGGCAGCAAAUCGCAUACU [SS Theo B #24 Ms10] | 165 | 163 | 142 | 30.8 | 198 |
| UACUUGCUGACGGCCGCCACUAGAACAUGAGGAUCACCCAUGUAAGUGGUUGGUUCAUGGGUGACUAGGACCGGGUCAGCAAGAU [(Trp1)-(Ms2)-(T)'-(M)'-(Trp2)_Design19] | 26.9 | – | 47.9 | 37.7 | – |
| GGGCGCUAUCCCGCGAGGGAUAGCGUUCAACGAGGACCGGUACGGCCGCCACUCGAACGAGUGGGUACAUGAGGAUCACCCAUGU [Haa] | 19.9 | 28.5 | 46.4 | 37.1 | 35.4 |
| GACUGUAAAAUAUGACUCAGGGUGACGUCCCGAGGACCGGUACGGCCGCCACUCGAGCGAAUACAUGAGGAUCACCCAUGUAGUC [theeternabot_exclusion_MS2_Trp_A_15] | 20.5 | 45.4 | 61.5 | 81.2 | 54.6 |
| GUACAUGAGGAUCACCCAUGUAUAGUUGAAGGAGCGACCAGAGGGUCAGGUAGGUCGCAGCACAUGAGGUAAGGCCGUGUAUGCU [#1 Exclusion - Arginine A Attempt #20 (Inspired by Pi)] | 17.2 | 15.2 | 23.9 | 21.7 | 16.8 |
